From the supplement of paper PMC10567573

B1: ANKRD40 (parent)
chain: VRIQNPSLRENDFIEIELDRQELT

Variants of: B1
Assay: protein stability index of a GFP-peptide fusion (GPS, HEK-293T) (PSI 1-6); higher = more stable
Conditions: c terminus: a fixed tail appended
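Also: lentivirally expressed fusions sorted by FACS into six bins by GFP to DsRed ratio, PSI derived from sequencing read proportions per bin multiplied by bin number.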

Going from LRIQNPSLRENDFIEIELDRQELT [V1L] to RRIQNPSLRENDFIEIELDRQELT [V1R], the protein stability index rises from 2.71 to 3.63.

Compared with CRIQNPSLRENDFIEIELDRQELT [V1C], WRIQNPSLRENDFIEIELDRQELT [V1W] is lower in protein stability index: 3.51 for the first, 2.99 for the second.

First: IRIQNPSLRENDFIEIELDRQELT [V1I]
Second: SRIQNPSLRENDFIEIELDRQELT [V1S]
The protein stability index of the first is lower: 2.03 for the first, 4.3 for the second.

Compared with PRIQNPSLRENDFIEIELDRQELT [V1P], HRIQNPSLRENDFIEIELDRQELT [V1H] is lower in protein stability index: 4.53 for the first, 4.04 for the second.

Compared with GRIQNPSLRENDFIEIELDRQELT [V1G], VRIPNPSLRENDFIEIELDRQELT [Q4P] is lower in protein stability index: 4.27 for the first, 2.63 for the second.

Going from VRIMNPSLRENDFIEIELDRQELT [Q4M] to VRITNPSLRENDFIEIELDRQELT [Q4T], the protein stability index rises from 2.04 to 2.27.

Going from VRINNPSLRENDFIEIELDRQELT [Q4N] to VRIFNPSLRENDFIEIELDRQELT [Q4F], the protein stability index falls from 2.46 to 1.92.

First: VRILNPSLRENDFIEIELDRQELT [Q4L]
Second: VRIKNPSLRENDFIEIELDRQELT [Q4K]
The protein stability index of the first is lower: 1.89 for the first, 2.09 for the second.

First: VRICNPSLRENDFIEIELDRQELT [Q4C]
Second: VRIANPSLRENDFIEIELDRQELT [Q4A]
The protein stability index of the first is lower: 2.01 for the first, 2.16 for the second.

Going from VRIRNPSLRENDFIEIELDRQELT [Q4R] to VRIDNPSLRENDFIEIELDRQELT [Q4D], the protein stability index rises from 2.12 to 2.88.

Going from VRIHNPSLRENDFIEIELDRQELT [Q4H] to VRIYNPSLRENDFIEIELDRQELT [Q4Y], the protein stability index falls from 2.11 to 1.98.

First: VRIGNPSLRENDFIEIELDRQELT [Q4G]
Second: VRISNPSLRENDFIEIELDRQELT [Q4S]
The protein stability index of the first is higher: 2.36 for the first, 2.29 for the second.

Compared with VRIINPSLRENDFIEIELDRQELT [Q4I], VRIWNPSLRENDFIEIELDRQELT [Q4W] is lower in protein stability index: 2.24 for the first, 1.61 for the second.

Compared with VRIVNPSLRENDFIEIELDRQELT [Q4V], VRIENPSLRENDFIEIELDRQELT [Q4E] is higher in protein stability index: 2.01 for the first, 2.31 for the second.

First: VREQNPSLRENDFIEIELDRQELT [I3E]
Second: VRTQNPSLRENDFIEIELDRQELT [I3T]
The protein stability index of the first is higher: 4.63 for the first, 3.9 for the second.

First: VRRQNPSLRENDFIEIELDRQELT [I3R]
Second: VRHQNPSLRENDFIEIELDRQELT [I3H]
The protein stability index of the first is lower: 3.88 for the first, 4.17 for the second.

Going from VRKQNPSLRENDFIEIELDRQELT [I3K] to VRDQNPSLRENDFIEIELDRQELT [I3D], the protein stability index rises from 3.44 to 4.9.

Compared with VRNQNPSLRENDFIEIELDRQELT [I3N], VRWQNPSLRENDFIEIELDRQELT [I3W] is lower in protein stability index: 4.28 for the first, 2.4 for the second.

Compared with VRFQNPSLRENDFIEIELDRQELT [I3F], VRQQNPSLRENDFIEIELDRQELT [I3Q] is higher in protein stability index: 2.44 for the first, 3.71 for the second.

Going from VRSQNPSLRENDFIEIELDRQELT [I3S] to VRAQNPSLRENDFIEIELDRQELT [I3A], the protein stability index rises from 3.84 to 4.17.

First: VRPQNPSLRENDFIEIELDRQELT [I3P]
Second: VRCQNPSLRENDFIEIELDRQELT [I3C]
The protein stability index of the first is higher: 3.77 for the first, 3.22 for the second.

Going from VRVQNPSLRENDFIEIELDRQELT [I3V] to VRYQNPSLRENDFIEIELDRQELT [I3Y], the protein stability index rises from 3.06 to 3.11.

Going from VRLQNPSLRENDFIEIELDRQELT [I3L] to VRMQNPSLRENDFIEIELDRQELT [I3M], the protein stability index rises from 2.75 to 3.61.

With VRGQNPSLRENDFIEIELDRQELT [I3G] the protein stability index was 4.05.
